Measurements reported in patent publication US20250051407A1, “De novo designed sequence-specific DNA binding proteins” (University of Washington, priority 2023, published 2025).
“Also recorded” adds a separate entry of the source.

Assays:
[1] = tested on: 13 unique dsDNA targets; assay: All-by-all yeast surface display screen of DBP design hits; assay type: binding; conditions: for Target sequence preference: 13 unique dsDNA targets; for Number of the 13 tested DNA target sequences preferentially bound: including designed target sequence; for Binding specificity versus design models: all-by-all screen with Rosetta-predicted motifs
Procedure: And an all-by-all screen of DBP design hits to 13 unique dsDNA targets was performed (FIG. 4, table 2). […] To try to understand these observed binding preferences, each tested DNA sequence was threaded onto each design complex model at all possible base pair alignments, the alternative complex models were relaxed with Rosetta™, and the model with the most favorable Rosetta™ ΔΔG was selected.
Saccharomyces cerevisiae EBY100 strain cultures were grown in C-Trp-Ura medium supplemented with 2% (w/v) glucose. For induction of expression, yeast cells were centrifuged at 6,000 g for 1 min and resuspended in SGCAA medium supplemented with 0.2% (w/v) glucose at the cell density of 1×10^7 cells per ml and induced at 30° C. for 16-24 h. Cells were washed with PBSF (PBS with 1% (w/v) BSA) and labeled with biotinylated targets using two labeling methods: with-avidity and without-avidity labeling. For the with-avidity method, the cells were incubated with biotinylated target, together with anti-c-Myc fluorescein isothiocyanate (FITC, Miltenyi Biotech) and streptavidin-phycoerythrin (SAPE, ThermoFisher). The concentration of SAPE in the with-avidity method was used at one-quarter of the concentration of the biotinylated targets. For the without-avidity method, the cells were first incubated with biotinylated targets, washed and secondarily labeled with SAPE and FITC.
(§1) For yeast display characterization of individual designs, including competition assays, DNA sequences encoding the proteins of interest were purchased as Integrated DNA Technologies (IDT) E-Blocks™, transformed into yeast cells, and incubated in 96 well culture plates. Labeling with biotinylated dsDNA targets and SAPE/FITC was performed in a 96 well plate format. For yeast display competition assays, labeling was performed without avidity using 1 μM biotinylated dsDNA duplex oligos and an excess of 8 μM non-biotinylated competitor dsDNA duplex oligos. […] Flow cytometry analysis was performed with an Attune NxT™ flow cytometer with autosampler. Flow cytometry data analysis was performed using custom python code and the CytoFlow™ python package. For each individual sample, gating of the expression population was performed using the CytoFlow™ Gaussian Mixture Model and the ratio of SAPE channel intensity to FITC channel intensity (binding signal/expression signal) was calculated for all gated expression events of the sample.

[2] = tested on: biotinylated target dsDNA with non-biotinylated competitor dsDNA; assay: Yeast display competition assay with base-substituted competitor dsDNA; assay type: binding; conditions: all possible base mutations at each position of the competitor oligo
Excerpt: We used a yeast display competition assay to characterize the DNA binding site specificity of a subset of the designs (FIG. 1A-E, left; FIG. 5). Addition of non-biotinylated competitor dsDNA to biotinylated target sequence reduced binding signal by flow cytometry (FIG. 1A-E, middle). […] For example, in DBP6 (FIG. 1A) R31 and R36 in the design model form bidentate hydrogen bonds with the guanines of base pair positions G12 and C9, respectively, while T32 forms a hydrogen bond with C10.
as §1

[3] = tested on: synTF-specific cis-regulatory elements (CRE) in HEK293T cells; assay: Transcriptional activation by synTFs in HEK293T cells (ENGRAM); assay type: cell-based; conditions: DBP fused to GCN4 dimerization domain and VP64; HEK293T cells expressing PEmax; dependent on spacing between motifs
Excerpt: Next, we investigated whether the DBPs can be used as activators in mammalian cells. A set of synthetic transcription factors (synTFs) were created by fusing the GCN4 dimerization domain and the VP64 activation domain to the C-termini of DBPs 9, 35opt, 48, 57, and 60 which recognize 3 unique motifs. The dimerization domain allows the DBPs to recognize a palindromic target sequence consisting of two binding motifs, improving the binding affinity to the DNA sequence (FIG. 2C). We created synTF specific cis-regulatory elements (CRE) with 4 repeats spaced by 6 bp to drive the expression of downstream genes, and used the ENGRAM (43) recording technology to measure the activity of the synTFs in HEK293 cells. In ENGRAM, each CRE drives the expression of a uniquely barcoded pegRNA, which upon expression is recorded into the DNA TAPE at the HEK3 locus by prime-editor (PEmax); the activity of individual synTFs can be measured as the abundance of the barcode on the DNA TAPE (FIG. 2C). We first tested 3 different spacings-1 bp, 3 bp, and 5 bp-between the palindromic binding motifs to maximize the recorder activity. 3 synTF specific recorders and 1 TCF-LEF-recorder (negative control) were mixed with ratio 2:2:2:1 and co-transfected with synTFs into the HEK293T cells expressing PEmax. Cells were harvested and analyzed 2 days post-transfection. After analyzing the barcode abundance on the DNA TAPE, we observed 3-5 fold activation for DBP9/DBP35 and DBP57/DBP60 (FIG. 2D).
HEK293T cells expressing PEmax™ were cultured in DMEM High glucose (GIBCO), supplemented with 10% Fetal Bovine Serum (Rocky Mountain Biologicals) and 1% penicillin-streptomycin (GIBCO). Cells were grown with 5% CO2 at 37° C. 1×10^5 cells were seeded on a 48-well plate a day before transfection. Enhancer plasmid and binder plasmid were mixed with a ratio of 2:1. Enhancer variants and background control were mixed with a ratio of 2:2:2:1. A total of 300 ng of plasmid were transfected using Lipofectamine™ 3000 (ThermoFisher, L3000015), following the manufacturer's protocol. Cells were harvested 2 days post-transfection. Genomic DNA was extracted based on the protocol described earlier (43). Briefly, cells were lysed using freshly prepared lysis buffer (10 mM Tris-HCl, pH 7.5; 0.05% SDS; 25 µg/ml protease (ThermoFisher)) for each well. The genomic DNA mixture was incubated at 50° C. for 1 h, followed by an 80° C. enzyme inactivation step for 30 min. The DNA TAPE was amplified from the genomic DNA directly for next generation sequencing. Recorded information was extracted via custom analysis code. Each enhancer has a unique barcode representing its activity. Transcription activation was measured as the fold change in the barcode abundance relative to the negative control barcode. All measurements were performed in triplicates.

In the case of “DBP23: designed DNA-binding protein, SEQ ID NO: 9, DNA target B (PLAELGKAIKEARKRKGLTQAEVAKAAGVSRATVQRLELGKAKSIRPDKLRAILEVVGL)”, the Target sequence preference [1] is reported as “bound to most of the targets”.

In the case of “DBP52: designed DNA-binding protein, SEQ ID NO: 26, DNA target E (RPLTPAEVFGRELRRLRRAAGLTQAELAERAGIGQGTVSRYEHGRRLPSPEEQERLLAAL)”, the Target sequence preference [1] is reported as “strong preference for 2 or 3 of the sequence targets”.

With “DBP90: designed DNA-binding protein, SEQ ID NO: 49, DNA target A (NKYQLSLLESAFQSNRYPDISQRATLASQTGLPERRIKIWFQNRRQRWKRKK)” the “Binding to initial design target” value ([1]; yeast surface display, 1 μM dsDNA with avidity) was “bound weakly” and the “Binding to alternate target sequence” value ([1]; yeast surface display, 1 μM dsDNA with avidity, alternate target H (DBP90), D (DBP48), C (DBP57)) was “strongly”.

For “DBP83: designed DNA-binding protein, SEQ ID NO: 43, DNA target A (PREREILRLLAEGKNAWEIAQILNISVRTVRNHLRNAMRKLGARNRVQAVARALRLG)”, the “Number of the 13 tested DNA target sequences preferentially bound” value ([1]; 1 μM dsDNA with avidity) was “less than 3”.

“DBP44: designed DNA-binding protein, SEQ ID NO: 18, DNA target G (KEERVLAALEAHPWSTLAEIAELTGLSRSTVSRILSRLRKEGKCDSRREGRKVRYWLVRR)” was tested, and the Target sequence preference [1] was “bound to most of the targets”.

For “DBP69: designed DNA-binding protein, SEQ ID NO: 38, DNA target C (MKEEGRKLKELRERLGLTQAELAEALGLGQSTISRLERGRKEISPEVWEKALALLE)”, the “Number of the 13 tested DNA target sequences preferentially bound” value ([1]; 1 μM dsDNA with avidity) was “less than 3” and the “Binding specificity versus design models” value [1] was “bound with specificity closely consistent with the design models”.

“DBP9: designed DNA-binding protein, SEQ ID NO: 6, DNA target B (DWERRCAYARRARKELGLTQAELGELAGVSRTTVSRIERGKPDVSEASVEAVLAVL)” was tested, and the “DNA binding site specificity” value [2] was “specificity for a 6 nucleotide stretch (TGCACA) with peripheral dependence on T8 and A13”, the “Number of the 13 tested DNA target sequences preferentially bound” value ([1]; 1 μM dsDNA with avidity) was “less than 3” and the Target sequence preference [1] was “strong preference for only their designed target sequence”. For the same molecule, the “Binding specificity versus design models” value [1] was “bound with specificity closely consistent with the design models” and the “Fold activation of synTFs measured as normalized barcode abundance in the DNA TAPE” value [3] was 3-5 fold.

With “DBP51: designed DNA-binding protein, SEQ ID NO: 25, DNA target E (MEADPAVVFGRRLRAARRAKGLTQAELAERAGLGQGTISRYEKGRTLPSPEQVEKLLAAL)” the “Number of the 13 tested DNA target sequences preferentially bound” value ([1]; 1 μM dsDNA with avidity) was “less than 3” and the “Binding specificity versus design models” value [1] was “bound with specificity closely consistent with the design models”.

B1: DBP56: designed DNA-binding protein, SEQ ID NO: 30, DNA target E (protein)
chain: PPPTPFEVAGARIKEERAKLGLTQAELAKVAGVGQATVSRIEKGRKCSWELIEKIFEALKKV
For B1, the “DNA binding site specificity” value [2] was “specificities consistent with the designed sidechain-base interactions”, the “Number of the 13 tested DNA target sequences preferentially bound” value ([1]; 1 μM dsDNA with avidity) was “less than 3” and the “Binding specificity versus design models” value [1] was “bound with specificity closely consistent with the design models”.

B2: DBP60: designed DNA-binding protein, SEQ ID NO: 34, DNA target E (protein)
chain: DIEKIAKAVKELREELGLTQAEFAKKIGIGQGTLSRFEKGGVLSPKTMERLLKALEKEFGFDVKK
B2 was tested, and the “Number of the 13 tested DNA target sequences preferentially bound” value ([1]; 1 μM dsDNA with avidity) was “less than 3”, the Target sequence preference [1] was “strong preference for 2 or 3 of the sequence targets” and the “Binding specificity versus design models” value [1] was “bound with specificity closely consistent with the design models”. For the same molecule, the “Fold activation of synTFs measured as normalized barcode abundance in the DNA TAPE” value [3] was 3-5 fold.

B3: DBP47: designed DNA-binding protein, SEQ ID NO: 21, DNA target D (protein)
chain: MTPEERERAKEIGREIRELRRERGLTQRELADLLGVSRSTVSDIESGRRLPSEELLRRIREILGV
In the case of B3, the “Number of the 13 tested DNA target sequences preferentially bound” value ([1]; 1 μM dsDNA with avidity) is reported as “less than 3” and the “Binding specificity versus design models” value [1] is reported as “bound with specificity closely consistent with the design models”.

B4: DBP5: designed DNA-binding protein, SEQ ID NO: 3, DNA target A (protein)
chain: GFGKAVKAKRAELGLTQAEFAERAGLSRRTIIRIEQGKVKATSTTAEKIAAALGTTVQELEQA
In the case of B4, the “Binding specificity versus design models” value [1] is reported as “bound with specificity closely consistent with the design models”.

B5: DBP62: designed DNA-binding protein, SEQ ID NO: 36, DNA target F (protein)
chain: KEELEKLLKIIESLPKKFREVIILKFVEGLSYTEIAERLGVSRGAVYSRLRSALKKIEEALKK
B5 was tested, and the “DNA binding site specificity” value [2] was “dependent on bases peripheral to the binding site (e.g. C11); also recorded: exhibited specificity for its target site”, the “Number of the 13 tested DNA target sequences preferentially bound” value ([1]; 1 μM dsDNA with avidity) was “less than 3” and the Target sequence preference [1] was “strong preference for only their designed target sequence”. For the same molecule, the “Binding specificity versus design models” value [1] was “bound with specificity closely consistent with the design models”.

B6: DBP89: designed DNA-binding protein, SEQ ID NO: 48, DNA target A (protein)
chain: SPAAFDKLTARELAVARLVAQGLPNREIAAALHISPRAVEAHLRKIYRKLGIRRRRELAALLA
In the case of B6, the Target sequence preference [1] is reported as “bound to most of the targets”.

B7: DBP43: designed DNA-binding protein, SEQ ID NO: 17, DNA target G (protein)
chain: MEELKKLLESGDPKLQGEAVKKIREKLGLTQREFGKKIGVGQAKVSRIEAGKIKLTPELKEKILE
With B7 the “Binding specificity versus design models” value [1] was “bound with specificity closely consistent with the design models”.
